According to the DeepSol protein solubility set:

Test: soluble on expression in E. coli; label from the status in PepcDB or PDB records

Row | Sequence | soluble on expression in E. coli
1 | MDKRIENAMNELINTEIWSTGLYLSLQVYFEDERLPILSSWLNSQAQDNMNKVYQMMNRICHDGGCVVINEMKRDTHEWTTPLNALNELLEHEQYISRQVNTFLILCWNVSMSFHSFISGLYADRIYVSTAFMELLRILAKENERKLPYF | not soluble
2 | MSWDLSTAKPPVVVDTTLRDGSHAHRHQYTVEEARAIAQALDEAGVYAIEVSHGDGLGGSSLQYGFSRTDEMELIRAVRETVRRAKVAALLLPGIGTRKELKEAVEAGIQMVRIATQCTEADISEQHFGMAKEMGLEAVGFLMMSHMRPPEFLAEQARLMEGYGADVVYIVDSAGAMLPEDAYARVKALKEALSRAKVGFHAHNNLGLAIGNTLAALAAGADWVDATLRGYGAGAGNAPLEVLAAVLDKAGLNPGLDVFKLLDAAEYVMGPILHFQPYPDRDSVAIGYAGVYSTFLLHAKRIGKELGVDPLAILLELGRRQAVAGQEDWILRVALELKEKEAGALAD | soluble
3 | TVPGATTTSSAATETMENVKKCKNFLSTLIKLASSGKQSTETAANVKELVQNLLDGKIEAEDFTSRLYRELNSSPQPYLVPFLKRSLPALRQLTPDSAAFIQQSQQQPPPPTSQ | soluble
4 | MGSDKIHHHHHHMDMTFKLQVFEGPLDLLLYLIEKNKVNIYDIPIVEITAQYMEYVNQMKKDNLDTLSEFLVMAATLLDIKSKMLLPKKEEEEQEQEDPRAELVQQLLEYKMYKCMANELKDRQLDAGKVWYKKKDIPDEVLAYEEPVNLEELVGDIRLSDLNRIFQSIMKRQEEKIDKVRSKFGKIEKEEVSLEEKMEYLTDYAASHKHFSFRGMLTASSSKVEVIVTFLAILELMKTGKLTIVQEHIFDDIRIESRIAA | not soluble
5 | GPGSMTGLTVPRGEYTNVVVHHRMVGVSAFDDQFNCDWNFELYGVAERIKEHHGGAISDGFRMWLNRVEPGFIVRNFKQSLREAFGLTPPSALLMTSEEDIPHHEVTVYYDFEPAALRFPLLNIRLGE | soluble
6 | MASPHQEPKPGDLIEIFRLGYEHWALYIGDGYVIHLAPPSEYPGAGSSSVFSVLSNSAEVKRERLEDVVGGCCYRVNNSLDHEYQPRPVEVIISSAKEMVGQKMKYSIVSRNCEHFVTQLRYGKSRCKQVEKAKVEVGVATALGILVVAGCSFAIRRYQKKATALEHHHHHH | not soluble
7 | ARFMAVSSELKDDTRTYTVAGQVFFASSDRFMSHFDFREAVERVVIDVTHAHFWDITSVSALDRVVIKFRREGTEVEIKGMNDATRTLVDRFGVHDKPEEVEKLMGGH | not soluble
8 | MASSYSASAEPARVRALVYGHHGDPAKVVELKNLELAAVRGSDVRVKMLAAPINPSDINMIQGNYGLLPELPAVGGNEGVAQVVAVGSNVTGLKPGDWVIPANAGLGTWRTEAVFSEEALIQVPSDIPLQSAATLGVNPCTAYRMLMDFEQLQPGDSVIQNASNSGVGQAVIQIAAALGLRTINVVRDRPDIQKLSDRLKSLGAEHVITEEELRRPEMKNFFKDMPQPRLALNCVGGKSSTELLRQLARGGTMVTYGGMAKQPVVASVSLLIFKDLKLRGFWLSQWKKDHSPDQFKELILTLCDLIRRGQLTAPACSQVPLQDYQSALEASMKPFISSKQILTM | soluble
9 | GSLRPLSEVNQHSQLMAQLVEVIEDSFQMKVNKESVNYLRLIRHIRFTIERIKKEEPTKEPEKLMLLLKNEYPLCYNTAWKLIKILQQTLKKPVHEAEAVYLTLHLIPINQ | soluble
10 | MLPDADSKDQLVTIIQSVKPPTVPPHRSHDPANNLKRTDPYQFGSRYLEEGDDVFEFNAWDHVEPDDEFKAFAEVQYAKQRESPVSDFDKQRFNKDPAKWWNLFYKNNTSNFFKDRKWLRQEFPVLAEVTQKGAGRKVVLEVGAGAGNTAFPLITHNKNEELMVHACDFSKTAVQVMRESEHYNPKFISADVWDVTAVPDEENNGLPPGLTEGSVDVVILIFIFSALAPSQWDQAIRNVYRVLKPGGLVLFRDYGRGDLAQVRFKKGRYMDENFYVRGDGTRVYFFEKEQLEKMWGTWTPEKGLQMAEDNSIVAESEGAFDVEKIGVDRRLIVNRQRKLKMYRCWIQAHYRKRETPAAVEAEKADS | not soluble
11 | MQPEFWNDKRPAGVPDSLDFAAYRSVVEVFERSCKKFADRPAFSNLGVTLSYAELDRLSAAFAAYLQKQTDLQPGDRIAVQMPNVLQYPIAVFGALRAGLVVVNTNPLYTAREMRHQFKDAGVRALVYLNVFGKLVEEVLPDTRIEYLIEARMGDLLPALKGWLVNSVVKSVKKMVPDYRLPQALPFRQALKQGQGHALQPVRVGLEDVAVLQYTGGTTGVSKGAMLTHGNLVANMLQVHAQLSQLGKDGLPLMKEAQEVMIAPLPLYHIYAFTANCMCMMVSGNHNVLITNPRDIPGFVKELKKWRFSALLGLNTLFVALMEHPGFKDVDFSNLKLTNSGGTALVSATAERWKGVTGCTVVEGYGLTECSPVVTTNPYGEQARLGTVGIPVVGTALKVIDEQGNELPVGERGELCVKGPQVMKGYWQRPEATEEILDAEGWLKTGDIAVIDEDGFVRIVDRKKDLILVSGFNVYPNEIEDVVMAHPKVASCAAVGIPDEKSGEAVKLFVVARDPSLSVEELKAYCKENLTGYKIPRQIVLKDALPMTPVGKILR | not soluble
12 | MPDYLVVLQAAWIVRKARSVEDAMNIAVAEAGKKLNPDLDFVKIDVGDTACPKCNSPLKAVFMVAGVALVGLIFEMKVFNAKSPEHAAKIAKYEIGKRMPRIPLEVIEVAEIE | not soluble
13 | METKKTLREGYTTGSCATVATKAALTALITGQVQAEATIRLPIGRVVTFSLASCSFDGETATASVVKDGGDDPDATHGALIVSTVSWTSSPGVHIDGGEGVGRVTKPGLPVPVGEAAINPVPRQMIREAVNEVLAQYGLHRGVKVVISVPGGEEIAKKTLNPRLGIIGGISILGTRGIVVPFSTAAYRASIVQALQVAKANGCRHVVITTGGRSEKYAMQEYPHLPEEAFIEMGDFVGFTLKQCKRLGIKMVSMVGMMGKFSKVAQGVMMVHSKSAPVDFGFLAAIAEQAGACPELVAAVRGANTAAQVGDMMQEAGCTKFFELLCEACCQAALHEVGGGLTVATSIYTMNGQRLGKAVQTDGDDEVDRCRC | not soluble
14 | MAQHHGHLGAVYDAAGPQEVAALYDRWAETYESEMARAGYRHPAIGVALLARHLPRGARPLLDAGAGTGLLGEWLEIVGYPEVEALDISAGMLEVARAKGIYARCHNLPLGAALPFRDGAFAGIISTGVFTTGHVGAEALPELLRICRPGGVIVLTVKESLWQGGFAVSLEAAVASGLEHHHHHH | not soluble
15 | AFTGKYEIESEKNYDEFMKRLALPSDAIDKARNLKIISEVKQDGQNFTWSQQYPGGHSITNTFTIGKECDIETIGGKKFKATVQMEGGKVVVNSPNYHHTAEIVDGKLVEVSTVGGVSYERVSKKLA | soluble
16 | MSLTTTPANVLASVDLGSNSFRLQICENNNGQLKVIDSFKQMVRFAAGLDEQKNLSAASQEQALDCLAKFGERLRGFRPEQVRAVATNTFRVAKNIADFLPKAEAALGFPIEIIAGREEARLIYTGVIHTLPPGGGKMLVIDIGGGSTEFVIGSTLNPDITESLPLGCVTYSLRFFQNKITAKDFQSAISAARNEIQRISKNMRREGWDFAVGTSGSAKSIRDVLAAEMPQEADITYKGMRALAERIIEAGSVKKAKFENLKPERIEVFAGGLAVMMAAFEEMKLDRMTVTEAALRDGVFYDLIGRGLNEDMRGQTVAEFQHRYHVSLNQAKRTAETAQTFMDSLCHAKNVTVQELALWQQYLGRAAALHEIGLDIAHTGYHKHSAYILENADMPGFSRKEQTILAQLVIGHRGDMKKMSGIIGTNEMLWYAVLSLRLAALFCRSRQDLSFPKNMQLRTDTESCGFILRIDREWLERHPLIADALEYESVQWQKINMPFKVEAVEGHHHHHH | soluble
17 | MSLKNPLKLCGIEFTEYATPDSDFMEKAFYGFGFSKTKKMKGRDVEYFNQNDIHFLLNKEKAGFSKEFAKSHGPAICSMGWRVEDANFAFNEAVKRGAKSAENEANKLPYPAIFGIGDSLIYFIENFAKTGTNKGLIYDTDFEDIAEPVIVEDKGFLAVDHLTNNVYQGTMHKWADFYKDVFGFTEVRYFDIKGVKTALISYALASPCGKFCIPINEGKGSKDNQIDEYLNEYNGPGVQHLAFITDDLVGSLDKLDRSIVDTLNIVPEYYDEIFDRVPWVKEDKARIKEHQILVDSQSEDSYLLQIFTKNLFGPIFIEMIQRVDDQGFGEGNFSTLFKSIELNQMERGEGHHHHHH | soluble
